Several values for one entry are separate records, joined by “and”; a condition that tells them apart may be missing. Equal entries are not always repeated.
Settings: Escherichia coli (strain K12), pH 7.4, Thermal, DSC, sodium phosphate 10 mM, transition: 3, reversible: yes, whole UniProt chain shown

B1: DNA-binding protein HU-alpha wild type, P0ACF0 (protein)
chain: MNKTQLIDVIAEKAELSKTQAKAALESTLAAITESLKEGDAVQLVGFGTFKVNHRAERTGRNPQTGKEIKIAAANVPAFVSGKALKDAVK
- heat capacity change of unfolding (NaCl 1 M): 0.55 kcal/mol/K and 0.9 kcal/mol/K
- unfolding enthalpy (calorimetric) (NaCl 1 M): 49.7 kcal/mol and 39.3 kcal/mol and 33.7 kcal/mol
- Tm (NaCl 1M): 69 °C
- heat capacity change of unfolding (NaCl 1M): 0.55 kcal/mol/K
- unfolding enthalpy (calorimetric) (NaCl 1M): 42.8 kcal/mol
